Tested on: Ad3-GFP virus
Test: Competition of Ad3-GFP virus infection on HeLa cells
Assay type: cell-based, adenovirus serotype 3
Conditions: pre-incubation with knob; GFP expression
Procedure: FIG. 3A-3D. Competition of Ad3 virus by dimerized Ad3 knob mutants. FIG. 3A) Relative attachment of ^3H-labeled Ad3 virus in the presence of dimeric fiber knob mutants. 1.8×10^5 HeLa cells were incubated with Ad3 knob mutants at a concentration of 2.5 and 100 μg/ml on ice for 1 hour. Then 400 pfu/cell of ^3H-Ad3 virus was added on ice for another hour. Unbound virus particles were washed away. Attachment of virus particles incubated with PBS was taken as 100%. N=3. FIG. 3B1-3B2) Competition of Ad3-GFP virus infection on HeLa cells. 1.5×10^5 HeLa cells were seeded into 24 well plates. Cells were incubated with the Ad3 knob mutants at increasing concentrations for one hour at room temperature. 100 pfu/cell of Ad3-GFP virus were then added and GFP expression was analyzed 18 hours later by flow cytometry. FIG. 3B1) percentage of GFP positive cells. FIG. 3B2) mean fluorescence intensity. N=3. The standard deviation was less than 10%. FIG. 3C) Relative attachment of ^3H-labeled Ad3 virus in the presence of dimeric fiber knob mutants with multiple mutations. The study was performed as described in […]) The standard deviation was less than 10%. FIG. 3D) Competition of Ad3-GFP virus infection on HeLa cells. The study was performed as described in FIG. 3C) The standard deviation was less than 10%.
FIG. 9A1-9C. Analysis of dimeric Ad3 fiber knob mutants with increased affinity to DSG2. FIG. 9A1-9A2) Competition of Ad3-GFP virus infection on HeLa cells with dimeric affinity-enhanced mutant Y250F and JO-1 (dimeric wt Ad3 fiber knob). The experimental setting is as described for FIG. 3C. FIG. 9A1) percentage of GFP positive cells. FIG. 9A2) mean fluorescence intensity. N=3. The standard deviation was less than 10%. […] 100 pfu/cell of Ad3GFP virus were then added and GFP expression was analyzed 18 hours later. […]
Functional validation. […] Transduction was measured based on GFP expression (FIG. 3B). […] Dimeric Ad3 knob mutants with combined mutations were also analyzed for their ability to compete with Ad3 virus for attachment (FIG. 3C) and infection (FIG. 3D).

B1: D261N (protein)
chain: MKVSALKEKVSALKEKVSALKEKVSALKEKVSALKEGSGGGSGGGSGGGSNSIALKNNTLWTGPKPEANCIIEYGKQNPDSKLTLILVKNGGIVNGYVTLMGASDYVNTLFKNKNVSINVELYFDATGHILPDSSSLKTDLELKYKQTADFSARGFMPSTTAYPFVLPNAGTHNENYIFGQCYYKASNGALFPLEVTVMLNKRLPDSRTSYVMTFLWSLNAGLAPETTQATLITSPFTFSYIREDD
  Inhibition of Ad3-GFP infection of HeLa cells, in words: least reduced

— patent US12466859B2, “Desmoglein 2 (DSG2) binding proteins and uses therefor” (UNIVERSITY OF WASHINGTON THROUGH ITS CENTER FOR …, priority 2013, dated 2025)
